Test results published in the supplement of paper PMC7877785.
± gives the uncertainty stated by the source.

Test: self-splicing fitness, log relative to wild type (ln ratio); higher = more splicing; Tetrahymena group I intron in knt gene, E. coli kanamycin selection, DiMSum; sequences stand for … in CUCUCU…GGAGGGAAAAGUUAUCAGGCAUGCACCUGGUAGCUAGUCUUUAAACCAAUAGAUUGCAUCGGUUUAAAAGGCAAGACCGUCAAAUUGCGGGAAAGGGGUCAACAGCCGUUCAGUACCAAGUCUCAGGGGAAACUUUGAGAUGGCCUUGCAAAGGGUAUGGUAAUAAGCUGACGGACAUGGUCCUAACCACGCAGCCAAGUCCUAAGUCAACAGAUCUUCUGUUGAUAUGGAUGCAGUUCACAGACUAAAUGUCGGUCGGGGAAGAUGUAUUCUUCUCAUAAGAUAUAGUCGGACCUCUCCUUAAUGGGAGCUAGCGGAUGAAGUGAUGCAACACUGGAGCCGCUGGGAACUAAUUUGUAUGCGAAAGUAUAUUGAUUAGUUUUGGAGUACUCGUGGUCG
Method in brief: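 A randomised library covering all eight P1ex-region intron nucleotides was built with the intron in the knt kanamycin-resistance gene on pET-22b(+) and held in E. coli BL21(DE3). Cells were grown overnight at 37°C or 30°C on LB agar, with or without 25 μg/mL kanamycin, plus 100 μg/mL carbenicillin, 50 μM IPTG and 0.2% rhamnose, and pooled colonies were amplicon-sequenced on an Illumina HiSeq 2500. DiMSum fitness is the error-weighted combination of wild-type-normalised replicate fold changes, kanamycin versus none.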

Sequence	self-splicing fitness (ln) (30 °C)	self-splicing fitness (ln) (37 °C)
CCCUAGCAAUAUUACGGAAA	-3.33 ± 0.27	-1.5 ± 0.24
CCCUAGCAAUAUUACGGACG	-2.32 ± 0.097	-1.15 ± 0.11
CCCUAGCAAUAUUACGGAUG	-3.17 ± 0.15	-1.53 ± 0.11
CCCUAGCAAUAUUACGGCUU	-3.76 ± 0.18	-2.26 ± 0.18
CCCUAGCAAUAUUACGGGAG	-3.67 ± 0.18	-1.79 ± 0.14
CCCUAGCAAUAUUACGGUCA	-2.57 ± 0.18	-2.65 ± 0.28
CCCUAGCAAUAUUACGGUGU	-3.05 ± 0.098	-2.19 ± 0.11
CCCUAGCAAUAUUACGUAAU	-3.5 ± 0.22	-2.83 ± 0.25
CCCUAGCAAUAUUACGUCGC	-3.12 ± 0.21	-2.64 ± 0.25
CCCUAGCAAUAUUACGUCUA	-2.5 ± 0.19	-2.12 ± 0.2
CCCUAGCAAUAUUACGUGAC	-2.85 ± 0.15	-2.29 ± 0.34
CCCUAGCAAUAUUACGUGCG	-2.36 ± 0.13	-2.97 ± 0.17
CCCUAGCAAUAUUACGUUGG	-3.97 ± 0.23	-2.48 ± 0.2
CCCUAGCAAUAUUACGUUUG	-3.93 ± 0.16	-2.79 ± 0.18
CCGAAGCAAUAUUACGACUG	-1.06 ± 0.12	0.835 ± 0.17
CCGAAGCAAUAUUACGAGAG	-3.28 ± 0.22	-1.53 ± 0.19
CCGAAGCAAUAUUACGCAAA	–	-2.17 ± 0.38
CCGAAGCAAUAUUACGCCCC	-1.26 ± 0.24	-2.89 ± 0.47
CCGAAGCAAUAUUACGCCUC	-1.84 ± 0.28	–
CCGAAGCAAUAUUACGGACG	-0.955 ± 0.11	0.515 ± 0.12
CCGAAGCAAUAUUACGGACU	-2.33 ± 0.32	-2.2 ± 0.34
CCGAAGCAAUAUUACGGGGC	-3.54 ± 0.24	-1.64 ± 0.24
CCGAAGCAAUAUUACGUAAA	-3.14 ± 0.22	-2.12 ± 0.33
CCGAAGCAAUAUUACGUCAG	-1.47 ± 0.071	-0.198 ± 0.11
CCGAAGCAAUAUUACGUCUU	-3.58 ± 0.15	-2.98 ± 0.21

Sequence	self-splicing fitness (ln) (30 °C)	self-splicing fitness (ln) (37 °C)
CCGAAGCAAUAUUACGUGGA	-3.71 ± 0.29	-2.47 ± 0.17
CCGAAGCAAUAUUACGUGGU	-4.68 ± 0.29	-2.24 ± 0.2
CCGAAGCAAUAUUACGUGUG	-2.19 ± 0.059	-0.959 ± 0.062
CCGAAGCAAUAUUACGUUCG	-3.33 ± 0.13	-1.26 ± 0.11
CCGCAGCAAUAUUACGAAGG	-3.52 ± 0.18	-2.98 ± 0.29
CCGCAGCAAUAUUACGACAA	-3.68 ± 0.23	-2.21 ± 0.24
CCGCAGCAAUAUUACGACAC	-2.84 ± 0.28	-2.71 ± 0.38
CCGCAGCAAUAUUACGACAU	-3.899 ± 0.024	-2.94 ± 0.039
CCGCAGCAAUAUUACGAGAU	-4.09 ± 0.42	-2.2 ± 0.19
CCGCAGCAAUAUUACGAUAU	-4.2 ± 0.23	-2.76 ± 0.17
CCGCAGCAAUAUUACGCAUU	-3.28 ± 0.2	-3.44 ± 0.19
CCGCAGCAAUAUUACGCCAC	-3.33 ± 0.29	-1.81 ± 0.28
CCGCAGCAAUAUUACGCCAG	-0.493 ± 0.091	-0.22 ± 0.14
CCGCAGCAAUAUUACGCCGC	-4.21 ± 0.29	-2.93 ± 0.48
CCGCAGCAAUAUUACGCCUA	-3.92 ± 0.31	-3.58 ± 0.3
CCGCAGCAAUAUUACGGAAG	-3.05 ± 0.12	-1.33 ± 0.11
CCGCAGCAAUAUUACGGGUG	-1.22 ± 0.055	-0.741 ± 0.069
CCGCAGCAAUAUUACGGUGA	-2.46 ± 0.084	-0.784 ± 0.075
CCGCAGCAAUAUUACGGUUA	-3.25 ± 0.2	-2.26 ± 0.2
CCGCAGCAAUAUUACGUAGC	–	-0.697 ± 0.22
CCGCAGCAAUAUUACGUAGU	-3.89 ± 0.14	-2.88 ± 0.18
CCGCAGCAAUAUUACGUAUG	-1.31 ± 0.055	-0.172 ± 0.068
CCGCAGCAAUAUUACGUAUU	-3.84 ± 0.17	-2.66 ± 0.15
CCGCAGCAAUAUUACGUCAA	-4.05 ± 0.33	-3.04 ± 0.27
CCGCAGCAAUAUUACGUGAA	-4.45 ± 0.21	-1.88 ± 0.16

Sequence	self-splicing fitness (ln) (30 °C)	self-splicing fitness (ln) (37 °C)
CCGCAGCAAUAUUACGUGAC	-4.7 ± 0.39	-1.96 ± 0.26
CCGGAGCAAUAUUACGAAUG	-1.1 ± 0.074	0.21 ± 0.097
CCGGAGCAAUAUUACGACGU	-0.341 ± 0.08	-0.163 ± 0.096
CCGGAGCAAUAUUACGAGUU	-3.65 ± 0.2	-2.76 ± 0.29
CCGGAGCAAUAUUACGAUAG	-0.959 ± 0.07	-0.152 ± 0.081
CCGGAGCAAUAUUACGAUGC	-2.69 ± 0.41	–
CCGGAGCAAUAUUACGCACC	-1.27 ± 0.38	–
CCGGAGCAAUAUUACGCACU	–	-2.69 ± 0.48
CCGGAGCAAUAUUACGCCAA	–	-2.53 ± 0.26
CCGGAGCAAUAUUACGCCAU	–	-2.18 ± 0.35
CCGGAGCAAUAUUACGCGAG	-2.87 ± 0.3	-1.79 ± 0.27
CCGGAGCAAUAUUACGCGUG	-1.09 ± 0.14	-0.996 ± 0.16
CCGGAGCAAUAUUACGCUGU	-4.31 ± 0.34	-2.4 ± 0.4
CCGGAGCAAUAUUACGGCGG	-1.49 ± 0.15	-2.15 ± 0.34
CCGGAGCAAUAUUACGGGAC	-3.11 ± 0.31	-2.5 ± 0.3
CCGGAGCAAUAUUACGGGCG	-1.36 ± 0.11	-1 ± 0.15
CCGGAGCAAUAUUACGGUCC	-1.43 ± 0.23	–
CCGGAGCAAUAUUACGGUGC	–	-1.63 ± 0.45
CCGGAGCAAUAUUACGUCAA	-4.11 ± 0.32	-3.39 ± 0.26
CCGGAGCAAUAUUACGUCCA	-1.39 ± 0.21	-1.66 ± 0.32
CCGGAGCAAUAUUACGUGCA	-3.1 ± 0.35	-2.06 ± 0.29
CCGGAGCAAUAUUACGUUCG	-4.36 ± 0.46	-1.92 ± 0.46
CCGGAGCAAUAUUACGUUGU	-2.59 ± 0.21	-2.56 ± 0.26
CCGUAGCAAUAUUACGAAAC	-2.61 ± 0.41	-0.972 ± 0.29
CCGUAGCAAUAUUACGAAAU	-3.61 ± 0.32	-2.7 ± 0.34

Sequence	self-splicing fitness (ln) (30 °C)	self-splicing fitness (ln) (37 °C)
CCGUAGCAAUAUUACGAACA	-2.12 ± 0.2	-2.26 ± 0.19
CCGUAGCAAUAUUACGAACC	–	-2.06 ± 0.45
CCGUAGCAAUAUUACGACUA	–	-1.08 ± 0.25
CCGUAGCAAUAUUACGCAAG	-2.09 ± 0.18	-1.46 ± 0.18
CCGUAGCAAUAUUACGCAGC	-3.54 ± 0.35	-3.36 ± 0.25
CCGUAGCAAUAUUACGCAGG	–	-2.75 ± 0.48
CCGUAGCAAUAUUACGCCCA	–	-2.54 ± 0.48
CCGUAGCAAUAUUACGCUAC	-4.65 ± 0.38	-1.76 ± 0.21
CCGUAGCAAUAUUACGCUCA	–	-2.36 ± 0.26
CCGUAGCAAUAUUACGGAAC	-3.54 ± 0.41	-2.13 ± 0.43
CCGUAGCAAUAUUACGGAUA	–	-2.16 ± 0.28
CCGUAGCAAUAUUACGGAUU	–	-3.01 ± 0.29
CCGUAGCAAUAUUACGGCAG	-3.35 ± 0.26	-2.28 ± 0.26
CCGUAGCAAUAUUACGGGCA	-3.76 ± 0.42	-2.14 ± 0.23
CCGUAGCAAUAUUACGGGCU	-2.94 ± 0.16	-2.27 ± 0.21
CCGUAGCAAUAUUACGGUAA	-3.17 ± 0.24	-3.3 ± 0.26
CCGUAGCAAUAUUACGGUCA	-1.64 ± 0.12	-2.27 ± 0.19
CCGUAGCAAUAUUACGGUUA	-3.29 ± 0.16	-1.57 ± 0.12
CCGUAGCAAUAUUACGGUUU	-2.85 ± 0.16	-3.05 ± 0.27
CCGUAGCAAUAUUACGUACC	-4.4 ± 0.29	-1.72 ± 0.34
CCGUAGCAAUAUUACGUUAC	-4.02 ± 0.32	-2.27 ± 0.42
CCGUAGCAAUAUUACGUUAG	-2.22 ± 0.14	-0.971 ± 0.14
CCGUAGCAAUAUUACGUUCA	-1.34 ± 0.2	-1.91 ± 0.25
CCUAAGCAAUAUUACGAAUG	-1.63 ± 0.14	-2.23 ± 0.16
CCUAAGCAAUAUUACGACUC	-3.42 ± 0.38	-2.04 ± 0.3
